Assay results reported in article PMC12690290.

Experiments:
[1] = target: Low-density lipoprotein receptor 1 (low-density lipoprotein-related protein 1) (human (endogenous in HepG2 and primary human hepatocytes)) (UniProt Q07954); assay: affinity purification with mass spectrometry; as a6, RAP (500 nM) added as competitor to human hepatocyte extract and heme–HPX Affi-Gel 15; amount of receptor isolated
[2] = target: LRP1 (Homo sapiens) (UniProt Q07954); assay: surface plasmon resonance; settings: cited from earlier work

Substance: RAP (receptor associated protein) added at 500 nM (from UniProt P30533 35-357) (natural protein)
- percent decrease of LRP1 isolated on proto-heme–human HPX Affi-Gel 15 with 500 nM RAP [1]: 50%

Substance: hemopexin (from UniProt P02790)
- Kd [2]: 4 nM
